Data as given in US20260151504A1, “SYNTHETIC CELLS COMPRISING TNF-RELATED APOPTOSIS-INDUCING LIGAND (TRAIL) AND METHODS OF USING THE SAME” (Slingshot Biosciences, Inc., priority 2023, published 2026).

Legend:
[1] = target: TRAIL receptors DR4 and/or DR5; experiment: cell-based or functional assay
streptavidin [2] = target: streptavidin (UniProt P22629); experiment: flow cytometry, antibody staining of STV porous hydrogel microspheres, BD Quantibrite PE standard curve
streptavidin [3] = target: streptavidin (UniProt P22629); experiment: flow cytometry, antibody staining of STV smooth hydrogel microspheres, BD Quantibrite PE standard curve
streptavidin [4] = target: streptavidin (UniProt P22629); experiment: flow cytometry, antibody staining of STV magnetic beads, BD Quantibrite PE standard curve

Chain of streptavidin (P22629 37-163 limits assumed): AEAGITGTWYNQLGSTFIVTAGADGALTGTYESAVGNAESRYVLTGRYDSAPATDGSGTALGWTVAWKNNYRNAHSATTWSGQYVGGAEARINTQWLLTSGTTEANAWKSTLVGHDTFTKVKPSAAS

Biotinylated Fc-TRAIL: active fragment of the human TRAIL protein comprising SEQ ID NO: 2 with a mouse IgG2a-Fc Tag at the N-terminus (ACROBiosystems TRLH52591MG), biotinylated with Oyo-link single biotin (from UniProt P50591 114-281) (Fc fusion)
Early Stage Apoptotic (7-AAD-/Annexin V+), Jeko-1, 24 Hrs.; TRAIL Magnetic Beads [1]: 25.8% | Early Stage Apoptotic (7-AAD-/Annexin V+), Jeko-1, 24 Hrs.; TRAIL Porous Hydrogels [1]: 52.1% | Early Stage Apoptotic (7-AAD-/Annexin V+), Jeko-1, 24 Hrs.; TRAIL Smooth Hydrogels [1]: 44.8% | Early Stage Apoptotic (7-AAD-/Annexin V+), Jeko-1, 24 Hrs.; TRAIL encapsulated PLGA [1]: 3.08% | Early Stage Apoptotic (7-AAD-/Annexin V+), Jeko-1, 48 Hrs.; TRAIL Magnetic Beads [1]: 6.55% | Early Stage Apoptotic (7-AAD-/Annexin V+), Jeko-1, 48 Hrs.; TRAIL Porous Hydrogels [1]: 5.77% | Early Stage Apoptotic (7-AAD-/Annexin V+), Jeko-1, 48 Hrs.; TRAIL Smooth Hydrogels [1]: 11.9% | Early Stage Apoptotic (7-AAD-/Annexin V+), Jeko-1, 48 Hrs.; TRAIL encapsulated PLGA [1]: 3.07% | Early Stage Apoptotic (7-AAD-/Annexin V+), Jurkat, 24 Hrs.; TRAIL Magnetic Beads [1]: 22.3% | Early Stage Apoptotic (7-AAD-/Annexin V+), Jurkat, 24 Hrs.; TRAIL Porous Hydrogels [1]: 41.9% | Early Stage Apoptotic (7-AAD-/Annexin V+), Jurkat, 24 Hrs.; TRAIL Smooth Hydrogels [1]: 39% | Early Stage Apoptotic (7-AAD-/Annexin V+), Jurkat, 24 Hrs.; TRAIL encapsulated PLGA [1]: 7.86% | Early Stage Apoptotic (7-AAD-/Annexin V+), Jurkat, 48 Hrs.; TRAIL Magnetic Beads [1]: 13.8% | Early Stage Apoptotic (7-AAD-/Annexin V+), Jurkat, 48 Hrs.; TRAIL Porous Hydrogels [1]: 22.5% | Early Stage Apoptotic (7-AAD-/Annexin V+), Jurkat, 48 Hrs.; TRAIL Smooth Hydrogels [1]: 18.3% | Early Stage Apoptotic (7-AAD-/Annexin V+), Jurkat, 48 Hrs.; TRAIL encapsulated PLGA [1]: 3.1% | Late Stage Apoptotic (7-AAD+/Annexin V+), Jeko-1, 24 Hrs.; TRAIL Magnetic Beads [1]: 20.1% | Late Stage Apoptotic (7-AAD+/Annexin V+), Jeko-1, 24 Hrs.; TRAIL Porous Hydrogels [1]: 33.9% | Late Stage Apoptotic (7-AAD+/Annexin V+), Jeko-1, 24 Hrs.; TRAIL Smooth Hydrogels [1]: 16.9% | Late Stage Apoptotic (7-AAD+/Annexin V+), Jeko-1, 24 Hrs.; TRAIL encapsulated PLGA [1]: 5.34% | Late Stage Apoptotic (7-AAD+/Annexin V+), Jeko-1, 48 Hrs.; TRAIL Magnetic Beads [1]: 44.1% | Late Stage Apoptotic (7-AAD+/Annexin V+), Jeko-1, 48 Hrs.; TRAIL Porous Hydrogels [1]: 87.5% | Late Stage Apoptotic (7-AAD+/Annexin V+), Jeko-1, 48 Hrs.; TRAIL Smooth Hydrogels [1]: 43.1% | Late Stage Apoptotic (7-AAD+/Annexin V+), Jeko-1, 48 Hrs.; TRAIL encapsulated PLGA [1]: 13.9% | Late Stage Apoptotic (7-AAD+/Annexin V+), Jurkat, 24 Hrs.; TRAIL Magnetic Beads [1]: 14.9% | Late Stage Apoptotic (7-AAD+/Annexin V+), Jurkat, 24 Hrs.; TRAIL Porous Hydrogels [1]: 18.8% | Late Stage Apoptotic (7-AAD+/Annexin V+), Jurkat, 24 Hrs.; TRAIL Smooth Hydrogels [1]: 18% | Late Stage Apoptotic (7-AAD+/Annexin V+), Jurkat, 24 Hrs.; TRAIL encapsulated PLGA [1]: 3.17% | Late Stage Apoptotic (7-AAD+/Annexin V+), Jurkat, 48 Hrs.; TRAIL Magnetic Beads [1]: 32.9% | Late Stage Apoptotic (7-AAD+/Annexin V+), Jurkat, 48 Hrs.; TRAIL Porous Hydrogels [1]: 63.5% | Late Stage Apoptotic (7-AAD+/Annexin V+), Jurkat, 48 Hrs.; TRAIL Smooth Hydrogels [1]: 43% | Late Stage Apoptotic (7-AAD+/Annexin V+), Jurkat, 48 Hrs.; TRAIL encapsulated PLGA [1]: 5.7% | Live Cells (7-AAD-/Annexin V-), Jeko-1, 24 Hrs.; TRAIL Magnetic Beads [1]: 54% | Live Cells (7-AAD-/Annexin V-), Jeko-1, 24 Hrs.; TRAIL Porous Hydrogels [1]: 13.6% | Live Cells (7-AAD-/Annexin V-), Jeko-1, 24 Hrs.; TRAIL Smooth Hydrogels [1]: 38.2% | Live Cells (7-AAD-/Annexin V-), Jeko-1, 24 Hrs.; TRAIL encapsulated PLGA [1]: 91.5% | Live Cells (7-AAD-/Annexin V-), Jeko-1, 48 Hrs.; TRAIL Magnetic Beads [1]: 48.2% | Live Cells (7-AAD-/Annexin V-), Jeko-1, 48 Hrs.; TRAIL Porous Hydrogels [1]: 5.18% | Live Cells (7-AAD-/Annexin V-), Jeko-1, 48 Hrs.; TRAIL Smooth Hydrogels [1]: 44.8% | Live Cells (7-AAD-/Annexin V-), Jeko-1, 48 Hrs.; TRAIL encapsulated PLGA [1]: 82.4% | Live Cells (7-AAD-/Annexin V-), Jurkat, 24 Hrs.; TRAIL Magnetic Beads [1]: 62.5% | Live Cells (7-AAD-/Annexin V-), Jurkat, 24 Hrs.; TRAIL Porous Hydrogels [1]: 39.1% | Live Cells (7-AAD-/Annexin V-), Jurkat, 24 Hrs.; TRAIL Smooth Hydrogels [1]: 42.7% | Live Cells (7-AAD-/Annexin V-), Jurkat, 24 Hrs.; TRAIL encapsulated PLGA [1]: 88.6% | Live Cells (7-AAD-/Annexin V-), Jurkat, 48 Hrs.; TRAIL Magnetic Beads [1]: 49.7% | Live Cells (7-AAD-/Annexin V-), Jurkat, 48 Hrs.; TRAIL Porous Hydrogels [1]: 12% | Live Cells (7-AAD-/Annexin V-), Jurkat, 48 Hrs.; TRAIL Smooth Hydrogels [1]: 36% | Live Cells (7-AAD-/Annexin V-), Jurkat, 48 Hrs.; TRAIL encapsulated PLGA [1]: 85.6% | Necrotic (7-AAD+/Annexin V-), Jeko-1, 24 Hrs.; TRAIL Magnetic Beads [1]: 0.12% | Necrotic (7-AAD+/Annexin V-), Jeko-1, 24 Hrs.; TRAIL Porous Hydrogels [1]: 0.34% | Necrotic (7-AAD+/Annexin V-), Jeko-1, 24 Hrs.; TRAIL Smooth Hydrogels [1]: 0.1% | Necrotic (7-AAD+/Annexin V-), Jeko-1, 24 Hrs.; TRAIL encapsulated PLGA [1]: 0.088% | Necrotic (7-AAD+/Annexin V-), Jeko-1, 48 Hrs.; TRAIL Magnetic Beads [1]: 1.08% | Necrotic (7-AAD+/Annexin V-), Jeko-1, 48 Hrs.; TRAIL Smooth Hydrogels [1]: 0.17% | Necrotic (7-AAD+/Annexin V-), Jeko-1, 48 Hrs.; TRAIL encapsulated PLGA [1]: 0.62% | Necrotic (7-AAD+/Annexin V-), Jurkat, 24 Hrs.; TRAIL Magnetic Beads [1]: 0.28% | Necrotic (7-AAD+/Annexin V-), Jurkat, 24 Hrs.; TRAIL Porous Hydrogels [1]: 0.18% | Necrotic (7-AAD+/Annexin V-), Jurkat, 24 Hrs.; TRAIL Smooth Hydrogels [1]: 0.23% | Necrotic (7-AAD+/Annexin V-), Jurkat, 24 Hrs.; TRAIL encapsulated PLGA [1]: 0.36% | Necrotic (7-AAD+/Annexin V-), Jurkat, 48 Hrs.; TRAIL Magnetic Beads [1]: 3.61% | Necrotic (7-AAD+/Annexin V-), Jurkat, 48 Hrs.; TRAIL Porous Hydrogels [1]: 2.1% | Necrotic (7-AAD+/Annexin V-), Jurkat, 48 Hrs.; TRAIL Smooth Hydrogels [1]: 2.67% | Necrotic (7-AAD+/Annexin V-), Jurkat, 48 Hrs.; TRAIL encapsulated PLGA [1]: 5.61% | percentage of apoptotic cells (Annexin V-positive), Jeko-1, 24 h; TRAIL attached to magnetic beads [1]: 47.1% | percentage of apoptotic cells (Annexin V-positive), Jeko-1, 24 h; TRAIL encapsulated in PLGA microspheres [1]: 9.69% | percentage of apoptotic cells (Annexin V-positive), Jeko-1, 24 h; TRAIL on porous hydrogel microspheres [1]: 86.3% | percentage of apoptotic cells (Annexin V-positive), Jeko-1, 24 h; TRAIL on smooth hydrogel microspheres [1]: 66.3% | percentage of apoptotic cells, Jeko-1, 48 hours; TRAIL attached to magnetic beads [1]: 50.1% | percentage of apoptotic cells, Jeko-1, 48 hours; TRAIL encapsulated in PLGA microspheres [1]: 17.2% | percentage of apoptotic cells, Jeko-1, 48 hours; TRAIL on porous hydrogel microspheres [1]: 93% | percentage of apoptotic cells, Jurkat, 24 h; TRAIL attached to magnetic beads [1]: 39.5% | percentage of apoptotic cells, Jurkat, 24 h; TRAIL encapsulated in PLGA microspheres [1]: 6.45% | percentage of apoptotic cells, Jurkat, 24 h; TRAIL on porous hydrogel microspheres [1]: 78% | percentage of apoptotic cells, Jurkat, 48 h; TRAIL attached to magnetic beads [1]: 57.2% | percentage of apoptotic cells, Jurkat, 48 h; TRAIL encapsulated in PLGA microspheres [1]: 7.87% | percentage of apoptotic cells, Jurkat, 48 h; TRAIL on porous hydrogel microspheres [1]: 81.4% | percentage of early apoptotic cells, Jeko-1, 24 h; TRAIL on porous hydrogel microspheres (text value; Table 4A prints 52.1) [1]: 52.3%

soluble TRAIL protein (ligand)
Early Stage Apoptotic (7-AAD-/Annexin V+), Jeko-1, 24 Hrs.; Soluble TRAIL [1]: 35.8% | Early Stage Apoptotic (7-AAD-/Annexin V+), Jeko-1, 48 Hrs.; Soluble TRAIL [1]: 9.88% | Early Stage Apoptotic (7-AAD-/Annexin V+), Jurkat, 24 Hrs.; Soluble TRAIL [1]: 51.1% | Early Stage Apoptotic (7-AAD-/Annexin V+), Jurkat, 48 Hrs.; Soluble TRAIL [1]: 20.4% | Late Stage Apoptotic (7-AAD+/Annexin V+), Jeko-1, 24 Hrs.; Soluble TRAIL [1]: 26.4% | Late Stage Apoptotic (7-AAD+/Annexin V+), Jeko-1, 48 Hrs.; Soluble TRAIL [1]: 59.7% | Late Stage Apoptotic (7-AAD+/Annexin V+), Jurkat, 24 Hrs.; Soluble TRAIL [1]: 22.5% | Late Stage Apoptotic (7-AAD+/Annexin V+), Jurkat, 48 Hrs.; Soluble TRAIL [1]: 56.9% | Live Cells (7-AAD-/Annexin V-), Jeko-1, 24 Hrs.; Soluble TRAIL [1]: 37.8% | Live Cells (7-AAD-/Annexin V-), Jeko-1, 48 Hrs.; Soluble TRAIL [1]: 30.2% | Live Cells (7-AAD-/Annexin V-), Jurkat, 24 Hrs.; Soluble TRAIL [1]: 26.3% | Live Cells (7-AAD-/Annexin V-), Jurkat, 48 Hrs.; Soluble TRAIL [1]: 21.3% | Necrotic (7-AAD+/Annexin V-), Jeko-1, 24 Hrs.; Soluble TRAIL [1]: 0.076% | Necrotic (7-AAD+/Annexin V-), Jeko-1, 48 Hrs.; Soluble TRAIL [1]: 0.16% | Necrotic (7-AAD+/Annexin V-), Jurkat, 24 Hrs.; Soluble TRAIL [1]: 0.11% | Necrotic (7-AAD+/Annexin V-), Jurkat, 48 Hrs.; Soluble TRAIL [1]: 1.42% | percentage of apoptotic cells (Annexin V-positive), Jeko-1, 24 h; soluble TRAIL protein [1]: 60.7% | percentage of apoptotic cells, Jeko-1, 48 hours; soluble TRAIL protein [1]: 69.8% | percentage of apoptotic cells, Jurkat, 24 h; soluble TRAIL protein [1]: 72.9% | percentage of apoptotic cells, Jurkat, 48 h; soluble TRAIL protein [1]: 73%

PE-anti-streptavidin antibody (BioLegend, clone: 3A20.2)
# of STV molecules/bead (molecules/bead) (streptavidin [2]): 20100 | # of STV molecules/bead (molecules/bead) (streptavidin [3]): 20100 | # of STV molecules/bead (molecules/bead) (streptavidin [4]): 120000
